Publication PMC8552062, “Contributions of UDP-Glucuronosyltransferases to Human Hepatic and Intestinal Metabolism of Ticagrelor and Inhibition of UGTs and Cytochrome P450 Enzymes by Ticagrelor and its Glucuronidated Metabolite” (Frontiers in Pharmacology, 2021)

Tests used:
[1] = tested on: ticagrelor glucuronidation in pooled HLM; assay: Effects of typical UGT inhibitors on ticagrelor glucuronidation in pooled HLM; type: in vitro ADME, human; settings: 10 μM ticagrelor
Procedure: (§1) Ticagrelor glucuronidation was investigated in an in vitro incubation system by using HLM, HIM, and recombinant human UGTs. The incubation system consisted of enzyme sources (HLM, HIM, or human recombinant UGTs), various concentrations of ticagrelor (dissolved in 50% methanol, 1% v/v, 1, 2, 5, 10, 20, 50, 100, 200, 500 μM of final concentration), alamethicin (50 μg/mg protein), 5 mM MgCl2, 100 mM tris-HCL buffer (pH 7.4), and 5 mM UDPGA in a total volume of 100 μl. Alamethicin is a pore-forming polypeptide used to activate UGTs in HLM and HIM ([Fisher et al., 2000]). Preliminary studies were conducted to determine the optimal protein concentrations and incubation times. Linear conditions of ticagrelor-O-Glu formation from ticagrelor, i.e., HLM, 0.2 mg of protein/ml and 60 min, HIM, 0.2 mg of protein/ml and 60 min, and recombinant human UGTs, 0.2 mg of protein/ml and 60 min were selected. The incubation mixture without UDPGA was placed on ice for 15 min to activate UGT by alamethicin. After pre-incubation for 5 min at 37°C, the reactions were started by the addition of UDPGA. After another 60 min of incubation at 37°C, the reaction was terminated by adding 100 μl of acetonitrile containing internal standard (diazepam). The mixture vortexed for 2 min and then centrifuged at 14,000 rpm for 10 min at 4°C. The resulting supernatant was injected into a liquid chromatography tandem mass spectrometry (LC-MS/MS, Applied Biosystems/MDS Sciex, Foster City, CA) system for the detection of ticagrelor-O-Glu.
(§2) The final concentrations of UGT inhibitors for each UGT isoform were set in accordance with previous publications as follows: atazanavir, 1 μM, UGT1A1; celastrol, 5 μM, UGT1A3; hecogenin, 1 μM, UGT1A4; niflumic acid, 1 μM, UGT1A9; and mefenamic acid, 20 μM, UGT2B7 ([Lee et al., 2019]). The assays were performed as described above, with 10 μM ticagrelor. The percentage of remaining glucuronidation activity was expressed by the following equation: Remaining activity(%)=Concentration of ticagrelor-O-Glu with inhibitor /Concentration of ticagrelor-O-Glu without inhibitor×100.

[2] = tested on: ticagrelor glucuronidation in pooled HIM; assay: Effects of typical UGT inhibitors on ticagrelor glucuronidation in pooled HIM; type: in vitro ADME, human; settings: 10 μM ticagrelor
Procedure: as §1, §2

[3] = substrate: CCCSc1nc(N[C@@H]2C[C@H]2c2ccc(F)c(F)c2)c2nnn([C@@H]3C[C@H](OCCO)[C@@H](O)[C@H]3O)c2n1; assay: Ticagrelor glucuronidation by recombinant human UGT1A7; type: in vitro ADME; settings: other: recombinant UGT1A7, Michaelis-Menten kinetics; pH 7.4; 37.0 °C
Procedure: as §1
(§3) Kinetic analyses were performed using the mean values of triplicate determinations with either pooled HLM, HIM, or recombinant human UGTs. All data were analyzed by nonlinear regression analysis using the GraphPad Prism 6 (GraphPad Software Inc., CA, United States). Michaelis-Menten kinetics (Eq. 1) or substrate inhibition kinetics (Eq. 2) ([Houston and Kenworthy, 2000]) were tested to determine the optimal model for describing the data. […] Intrinsic clearance (CLint) was calculated by dividing Vmax by Km.

[4] = substrate: CCCSc1nc(N[C@@H]2C[C@H]2c2ccc(F)c(F)c2)c2nnn([C@@H]3C[C@H](OCCO)[C@@H](O)[C@H]3O)c2n1; assay: Ticagrelor glucuronidation by recombinant human UGT1A9; type: in vitro ADME; settings: other: recombinant UGT1A9, Michaelis-Menten kinetics; pH 7.4; 37.0 °C
Procedure: as §1, §3

[5] = substrate: CCCSc1nc(N[C@@H]2C[C@H]2c2ccc(F)c(F)c2)c2nnn([C@@H]3C[C@H](OCCO)[C@@H](O)[C@H]3O)c2n1; assay: Ticagrelor glucuronidation by recombinant human UGT1A1; type: in vitro ADME; settings: other: recombinant UGT1A1, Michaelis-Menten kinetics; pH 7.4; 37.0 °C
Procedure: as §1, §3

[6] = substrate: CCCSc1nc(N[C@@H]2C[C@H]2c2ccc(F)c(F)c2)c2nnn([C@@H]3C[C@H](OCCO)[C@@H](O)[C@H]3O)c2n1; assay: Ticagrelor glucuronidation by recombinant human UGT2B7; type: in vitro ADME; settings: other: recombinant UGT2B7, Michaelis-Menten kinetics; pH 7.4; 37.0 °C
Procedure: as §1, §3

[7] = substrate: CCCSc1nc(N[C@@H]2C[C@H]2c2ccc(F)c(F)c2)c2nnn([C@@H]3C[C@H](OCCO)[C@@H](O)[C@H]3O)c2n1; assay: Ticagrelor glucuronidation by recombinant human UGT1A8; type: in vitro ADME; settings: other: recombinant UGT1A8, Michaelis-Menten kinetics; pH 7.4; 37.0 °C
Procedure: as §1, §3

[8] = substrate: CCCSc1nc(N[C@@H]2C[C@H]2c2ccc(F)c(F)c2)c2nnn([C@@H]3C[C@H](OCCO)[C@@H](O)[C@H]3O)c2n1; assay: Ticagrelor glucuronidation by recombinant human UGT1A3; type: in vitro ADME; settings: other: recombinant UGT1A3, Michaelis-Menten kinetics; pH 7.4; 37.0 °C
Procedure: as §1, §3

COC(=O)N[C@H](C(=O)N[C@@H](Cc1ccccc1)[C@@H](O)CN(Cc1ccc(-c2ccccn2)cc1)NC(=O)[C@@H](NC(=O)OC)C(C)(C)C)C(C)(C)C [atazanavir]
inhibition of ticagrelor-O-Glu formation ([1]; inhibitor 1 μM): 6.66% | inhibition of ticagrelor-O-Glu formation ([2]; inhibitor 1 μM): 6.08%

Cc1cccc(Nc2ccccc2C(=O)O)c1C [mefenamic acid]
inhibition of ticagrelor-O-Glu formation ([1]; inhibitor 20 μM): 42.95% | inhibition of ticagrelor-O-Glu formation ([2]; inhibitor 20 μM): 19.24%

CC1=C(O)C(=O)C=C2C1=CC=C1[C@@]2(C)CC[C@@]2(C)[C@@H]3C[C@](C)(C(=O)O)CC[C@]3(C)CC[C@]12C [celastrol]
inhibition of ticagrelor-O-Glu formation ([1]; inhibitor 5 μM): 19.35% | inhibition of ticagrelor-O-Glu formation ([2]; inhibitor 5 μM): 25.02%

hecogenin
inhibition of ticagrelor-O-Glu formation ([1]; inhibitor 1 μM): 9.29% | inhibition of ticagrelor-O-Glu formation ([2]; inhibitor 1 μM): 16.75%

O=C(O)c1cccnc1Nc1cccc(C(F)(F)F)c1 [niflumic acid]
inhibition of ticagrelor-O-Glu formation ([1]; inhibitor 1 μM): 35.48% | inhibition of ticagrelor-O-Glu formation ([2]; inhibitor 1 μM): 17.45%

B1: recombinant human UGT1A7 (Homo sapiens) (protein)
chain: GKLLVVPMDGSHWFTMQSVVEKLILRGHEVVVVMPEVSWQLGRSLNCTVKTYSTSYTLEDQDREFMVFADARWTAPLRSAFSLLTSSSNGIFDLFFSNCRSLFNDRKLVEYLKESCFDAVFLDPFDACGLIVAKYFSLPSVVFARGIFCHYLEEGAQCPAPLSYVPRLLLGFSDAMTFKERVWNHIMHLEEHLFCPYFFKNVLEIASEILQTPVTAYDLYSHTSIWLLRTDFVLEYPKPVMPNMIFIGGINCHQGKPVPMEFEAYINASGEHGIVVFSLGSMVSEIPEKKAMAIADALGKIPQTVLWRYTGTRPSNLANNTILVKWLPQNDLLGHPMTRAFITHAGSHGVYESICNGVPMVMMPLFGDQMDNAKRMETKGAGVTLNVLEMTSEDLENALKAVINDKSYKENIMRLSSLHKDRPVEPLDLAVFWVEFVMRHKGAPHLRPAAHDLTWYQYHSLDVIGFLLAVVLTVAFITFKCCAYGYRKCLGKKGRVKKAHKSKTH
notes: purchased BD Gentest; host or cells: baculovirus-infected insect cells
Km [3]: 1.68 µM | Vmax [3]: 1.2e-07 µmol/min/mg | Vmax/Km [3]: 0.07 µL/min/mg

B2: recombinant human UGT1A9 (Homo sapiens) (protein)
chain: GKLLVVPMDGSHWFTMRSVVEKLILRGHEVVVVMPEVSWQLGRSLNCTVKTYSTSYTLEDLDREFKAFAHAQWKAQVRSIYSLLMGSYNDIFDLFFSNCRSLFKDKKLVEYLKESSFDAVFLDPFDNCGLIVAKYFSLPSVVFARGILCHYLEEGAQCPAPLSYVPRILLGFSDAMTFKERVRNHIMHLEEHLLCHRFFKNALEIASEILQTPVTEYDLYSHTSIWLLRTDFVLDYPKPVMPNMIFIGGINCHQGKPLPMEFEAYINASGEHGIVVFSLGSMVSEIPEKKAMAIADALGKIPQTVLWRYTGTRPSNLANNTILVKWLPQNDLLGHPMTRAFITHAGSHGVYESICNGVPMVMMPLFGDQMDNAKRMETKGAGVTLNVLEMTSEDLENALKAVINDKSYKENIMRLSSLHKDRPVEPLDLAVFWVEFVMRHKGAPHLRPAAHDLTWYQYHSLDVIGFLLAVVLTVAFITFKCCAYGYRKCLGKKGRVKKAHKSKTH
notes: as for B1
Km [4]: 1.60 µM | Vmax [4]: 9e-07 µmol/min/mg | Vmax/Km [4]: 0.56 µL/min/mg

B3: recombinant human UGT1A1 (Homo sapiens) (protein)
chain: HAGKILLIPVDGSHWLSMLGAIQQLQQRGHEIVVLAPDASLYIRDGAFYTLKTYPVPFQREDVKESFVSLGHNVFENDSFLQRVIKTYKKIKKDSAMLLSGCSHLLHNKELMASLAESSFDVMLTDPFLPCSPIVAQYLSLPTVFFLHALPCSLEFEATQCPNPFSYVPRPLSSHSDHMTFLQRVKNMLIAFSQNFLCDVVYSPYATLASEFLQREVTVQDLLSSASVWLFRSDFVKDYPRPIMPNMVFVGGINCLHQNPLSQEFEAYINASGEHGIVVFSLGSMVSEIPEKKAMAIADALGKIPQTVLWRYTGTRPSNLANNTILVKWLPQNDLLGHPMTRAFITHAGSHGVYESICNGVPMVMMPLFGDQMDNAKRMETKGAGVTLNVLEMTSEDLENALKAVINDKSYKENIMRLSSLHKDRPVEPLDLAVFWVEFVMRHKGAPHLRPAAHDLTWYQYHSLDVIGFLLAVVLTVAFITFKCCAYGYRKCLGKKGRVKKAHKSKTH
notes: as for B1
Km [5]: 7.57 µM | Vmax [5]: 2e-07 µmol/min/mg | Vmax/Km [5]: 0.03 µL/min/mg

B4: recombinant human UGT2B7 (Homo sapiens) (protein)
chain: GKVLVWAAEYSHWMNIKTILDELIQRGHEVTVLASSASILFDPNNSSALKIEIYPTSLTKTELENFIMQQIKRWSDLPKDTFWLYFSQVQEIMSIFGDITRKFCKDVVSNKKFMKKVQESRFDVIFADAIFPCSELLAELFNIPFVYSLSFSPGYTFEKHSGGFIFPPSYVPVVMSELTDQMTFMERVKNMIYVLYFDFWFEIFDMKKWDQFYSEVLGRPTTLSETMGKADVWLIRNSWNFQFPYPLLPNVDFVGGLHCKPAKPLPKEMEDFVQSSGENGVVVFSLGSMVSNMTEERANVIASALAQIPQKVLWRFDGNKPDTLGLNTRLYKWIPQNDLLGHPKTRAFITHGGANGIYEAIYHGIPMVGIPLFADQPDNIAHMKARGAAVRVDFNTMSSTDLLNALKRVINDPSYKENVMKLSRIQHDQPVKPLDRAVFWIEFVMRHKGAKHLRVAAHDLTWFQYHSLDVIGFLLVCVATVIFIVTKCCLFCFWKFARKAKKGKND
notes: as for B1
Km [6]: 14.53 µM | Vmax [6]: 2.3e-07 µmol/min/mg | Vmax/Km [6]: 0.02 µL/min/mg

B5: recombinant human UGT1A8 (Homo sapiens) (protein)
chain: GKLLVVPMDGSHWFTMQSVVEKLILRGHEVVVVMPEVSWQLGKSLNCTVKTYSTSYTLEDLDREFMDFADAQWKAQVRSLFSLFLSSSNGFFNLFFSHCRSLFNDRKLVEYLKESSFDAVFLDPFDACGLIVAKYFSLPSVVFARGIACHYLEEGAQCPAPLSYVPRILLGFSDAMTFKERVRNHIMHLEEHLFCQYFSKNALEIASEILQTPVTAYDLYSHTSIWLLRTDFVLDYPKPVMPNMIFIGGINCHQGKPLPMEFEAYINASGEHGIVVFSLGSMVSEIPEKKAMAIADALGKIPQTVLWRYTGTRPSNLANNTILVKWLPQNDLLGHPMTRAFITHAGSHGVYESICNGVPMVMMPLFGDQMDNAKRMETKGAGVTLNVLEMTSEDLENALKAVINDKSYKENIMRLSSLHKDRPVEPLDLAVFWVEFVMRHKGAPHLRPAAHDLTWYQYHSLDVIGFLLAVVLTVAFITFKCCAYGYRKCLGKKGRVKKAHKSKTH
notes: as for B1
Km [7]: 6.63 µM | Vmax [7]: 9e-08 µmol/min/mg | Vmax/Km [7]: 0.01 µL/min/mg

B6: recombinant human UGT1A3 (Homo sapiens) (protein)
chain: GKVLVVPIDGSHWLSMREVLRELHARGHQAVVLTPEVNMHIKEENFFTLTTYAISWTQDEFDRHVLGHTQLYFETEHFLKKFFRSMAMLNNMSLVYHRSCVELLHNEALIRHLNATSFDVVLTDPVNLCAAVLAKYLSIPTVFFLRNIPCDLDFKGTQCPNPSSYIPRLLTTNSDHMTFMQRVKNMLYPLALSYICHAFSAPYASLASELFQREVSVVDILSHASVWLFRGDFVMDYPRPIMPNMVFIGGINCANRKPLSQEFEAYINASGEHGIVVFSLGSMVSEIPEKKAMAIADALGKIPQTVLWRYTGTRPSNLANNTILVKWLPQNDLLGHPMTRAFITHAGSHGVYESICNGVPMVMMPLFGDQMDNAKRMETKGAGVTLNVLEMTSEDLENALKAVINDKSYKENIMRLSSLHKDRPVEPLDLAVFWVEFVMRHKGAPHLRPAAHDLTWYQYHSLDVIGFLLAVVLTVAFITFKCCAYGYRKCLGKKGRVKKAHKSKTH
notes: as for B1
Km [8]: 19.19 µM | Vmax [8]: 7.8e-07 µmol/min/mg | Vmax/Km [8]: 0.04 µL/min/mg
